Reference: patent US20220106399A1 (IGM BIOSCIENCES, published 2022)

B1: anti-CD40 IgM (antibody, V domains shown)
VH: EVQLQQSGPDLVKPGASVKISCKTSGYTFTEYIMHWVKQSHGNSLEWIGGIIPNNGGTSYNQKFKDKATMTVDKSSSTGYMELRSLTSEDSAVYYCTRREVYGRNYYALDYWGQGTLVTVSS
VL: DIQMTQTTSSLSASLGDRVTITCSASQGINNYLNWYQQKPDGTVKLLIYYTSSLHSGVPSRFSGSGSGTDYSLTISNLEPEDIATYYCQQYSNLPYTFGGGTKLEIK
B2: anti-CD40 IgG (antibody, V domains shown)
VH: B1 VH
VL: B1 VL
notes: detection was with anti-human kappa

Assays:
[1] = biological target: T1, Recombinant human CD40-Fc (R&D Systems) (human, UniProt P25942 21-193); assay: ELISA, plate coated with 1.6 ng/mL human CD40-Fc, detection with anti-human kappa-HRP; Bmax by one site-specific binding with Hill slope; reference anti-CD40 IgG
T1 construct: also called CD4O-Fc; not shown: Fc part of the bought fusion protein
T1 sequence (P25942 21-193 limits assumed): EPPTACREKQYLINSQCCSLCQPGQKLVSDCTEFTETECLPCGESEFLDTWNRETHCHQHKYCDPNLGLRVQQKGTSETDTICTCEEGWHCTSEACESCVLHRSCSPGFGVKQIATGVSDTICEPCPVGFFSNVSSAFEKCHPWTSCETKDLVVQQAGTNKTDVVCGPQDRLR

[2] = biological target: T1, Recombinant human CD40-Fc (R&D Systems); assay: ELISA, plate coated with 6.25 ng/mL human CD40-Fc, detection with anti-human kappa-HRP; Bmax by one site-specific binding with Hill slope; reference anti-CD40 IgG
[3] = biological target: T1, Recombinant human CD40-Fc (R&D Systems); assay: ELISA on coated human CD40-Fc (1.6 and 6.25 ng/mL)
Description: The binding specificity of anti-CD40 IgM and anti-CD40 IgG were measured in an ELISA assay using two different antigen densities by the following method. […] All subsequent washes used PBS+0.05% Tween and all incubation steps were performed in block buffer (2% BSA in PBS). Plates were washed three times, blocked for one hour, and then washed again. The plates were then incubated for one hour with four-fold dilutions of anti-CD40-IgG and anti-CD40-IgM. After washing, the plates were incubated with a 1:6000 dilution of anti-human kappa-HRP (Southern Biotech #9230-05) in blocking buffer for 1 hour at room temperature. The plates were again washed 5 times, and then incubated with TMB substrate (BD Biosciences #555214) for 20 minutes at room temperature. The reaction was stopped with 1M H₂SO₄ and absorbance at 450 nm was read on a SpectraMax340 plate reader (Molecular Devices) using SoftMax Pro software.
Bmax was then calculated at each coating density in GraphPad Prism software using One site-Specific binding with Hill slope. […] IgM is thus more sensitive in detecting low CD40 levels than IgG.

Row | Binder | fold better binding than anti-CD40 IgG (ratio of Bmax) [1] | fold better binding than anti-CD40 IgG (ratio of Bmax) [2] | binding result [3]
1 | B1 | ~5.5 fold | ~2.3 fold | –
2 | B2 | – | – | binds
